Source: the supplement of paper PMC10219994
± gives the standard deviation of the averaged measurements.

B1: library; a variant is named by its letters at N, in order (parent)
chain: GAGACCGCAACTGAAAAGTTGTGGNNNNNATAGTGAGTCGCTGCCTGCAAAGACACAACT

Variants of: B1
Experiment: ligation selection enrichment (abundance after / before one-round selection) (fold); higher = more template-directed ligation activity
Conditions: with T7Psub CACGGAUGCUAAUACGACUCACUAUA; MgCl2 25 mM; 42 °C; 4 h; pH 8.5
Outline: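 Two independent reactions combined a T7-transcribed RNA ligase library with five randomized core positions (0.75 μM) and RNA substrate (6 μM) in 50 mM EPPS pH 8.5, 25 mM MgCl2, run for 4 h at 42 °C. The ligated products were sequenced on a MiSeq, and only reads with quality ≥30 at all randomized positions were counted. Enrichment is the abundance after ligation divided by the abundance before ligation.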

Row | Variant | ligation selection enrichment
1 | ATTAT | 1.85 ± 0.22
2 | CTTAG | 0.243 ± 0.0061
3 | CTTAT | 0.512 ± 0.016
4 | TTTAT | 1.19 ± 0.53
5 | ATTGG | 0.805 ± 0.035
6 | ATTGC | 0.765 ± 0.2
7 | ATTGT | 0.543 ± 0.093
8 | ATTGA | 6.7 ± 0.45
9 | GTTAT | 1.54 ± 0.28
10 | GTTCG | 2.43 ± 0.41
11 | GTTCA | 0.545 ± 0.029
12 | GTTCT | 0.587 ± 0.17
13 | GTTCC | 0.33 ± 0.069
14 | ATTCA | 0.611 ± 0.08
15 | ATTCG | 3.01 ± 0.51
16 | ATTCC | 0.246 ± 0.02
17 | ATTCT | 0.471 ± 0.21
18 | ATTTT | 0.4707 ± 0.0023
19 | ATTTC | 0.201 ± 0.0059
20 | ATTTG | 4.54 ± 1.9
21 | ATTTA | 0.445 ± 0.1
22 | GTTTT | 0.277 ± 0.048
23 | GTTTA | 0.446 ± 0.026
24 | GTTTG | 2.05 ± 0.47
25 | GTTTC | 0.169 ± 0.068
26 | GTTGA | 5.22 ± 0.32
27 | GTTGG | 0.739 ± 0.059

Row | Variant | ligation selection enrichment
28 | GTTGC | 0.769 ± 0.034
29 | GTTGT | 0.353 ± 0.054
30 | TTTCA | 0.268 ± 0.026
31 | TTTCC | 0.258 ± 0.0071
32 | TTTCT | 0.249 ± 0.052
33 | TTTCG | 0.632 ± 0.068
34 | TTTGG | 0.466 ± 0.024
35 | TTTGT | 0.164 ± 0.11
36 | TTTGA | 0.78 ± 0.039
37 | TTTGC | 0.319 ± 0.085
38 | CTTTA | 0.398 ± 0.12
39 | CTTTT | 0.63109 ± 0.00025
40 | CTTTG | 1.41 ± 0.7
41 | CTTTC | 0.2049 ± 0.00081
42 | TTTTC | 0.167 ± 0.027
43 | TTTTA | 0.205 ± 0.0097
44 | TTTTG | 1.05 ± 0.27
45 | TTTTT | 0.314 ± 0.091
46 | CTTGT | 0.413 ± 0.078
47 | CTTGC | 0.446 ± 0.26
48 | CTTGA | 2.2 ± 0.37
49 | CTTGG | 0.278 ± 0.035
50 | CTTCG | 1.47 ± 0.55
51 | CTTCA | 0.45 ± 0.093
52 | CTTCT | 0.681 ± 0.22
53 | CTTCC | 0.27 ± 0.03
